Results taken from paper PMC3858276.

Biological target: both RasaN and SLP-76
Assay: supernatant depletion assay (pull-down titration); biotinylated SH2 domains on streptavidin-coated DynaBeads, washed once and serially diluted in 1x PBS; ADAP at 8 nM (PBS with 0.1% E. coli extract), 10 min at RT; unbound ADAP in the supernatant read by in-gel fluorescence; Kd estimated from the plot

Kd: 60 to 90 nM
B1: phosphorylated SNAP-ADAP fusion protein (ADAP amino acids 570-690) (domain or fragment)
chain: DYDSLKLKKDSLGAPSRPIEDDQEVYDDVAEQDDISSHSQSGSGGIFPPPPDDDIYDGIEEEDADDGFPAPPKQLDMGDEVYDDVDTSDFPVSSAEMSQGTNVGKAKTEEKDLKKLKKQEK
modifications: phosphotyrosine (in vitro phosphorylation by Fyn kinase, approx. 90% of each phosphorylation site; sites in Table S1); BG-647 dye on the SNAP-tag
